Results: US20240285782A1, “METHODS FOR USING BIOADHESIVE AND STERIC INTERACTIONS OF COPOLYMERS WITH AT LEAST TWO MOIETIES TO MINIMIZE ADVERSE EFFECTS MEDIATED BY EXTERNAL INFLUENCES ON CELL, TISSUE, ORGAN SYSTEM, AND ORGANISM BIOLOGY” (priority 2021, published 2024)
Like-named read-outs stand apart in the source and are kept apart here.

Experiments:
[1] = tested on: HCE-T cells
[2] = tested on: corneal cell; settings: low dose exposure; cited from earlier work
[3] = cited from earlier work

Molecule | toxicity (positive control, pilot evaluation FIG. 8) [1] | toxicity to cells, corneal cell death [2] | half-life ([3]; after the first infusion) [days] | half-life ([3]; in steady state) [days] | time to reach steady state ([3]; in vivo) [days]
CCN(c1nc(N)c(C(=O)N=C(N)N)nc1Cl)C(C)C [EIPA, 5-(N-ethyl-N-isopropyl)amiloride] | toxic | toxic | – | – | –
Belnatomab mafodotin: ADC cited as an example for half-life | – | – | 12 | 14 | 70
